Key:
[1] = tested on: MM-1-19-P cells; assay: ATRA-induced differentiation of MM-1-19-P rhabdomyosarcoma cells; assay type: cell-based, human
From the text: It is known that ATRA (all-trans retinoic acid) is an important inducer for tumor cell differentiation (20-22). The human rhabdomyosarcoma cell line MM-1-19-P is constituted mainly of small polygonal cells, which when provided with retinoic acid, ultimately differentiate into myotubular cytomegalic cells. In order to clarify the physiological role of HDART in the reaction ascribed to nuclear hormone receptors, the influence of the expression with HDART on the differentiation of MM-1-19-P caused by ATRA was analyzed.
MM-1-19-P cells were plated in a […] Petri dish, followed by co-transfection of the cells with 0.4 μg of pGFP vector and 2 μg of pcDNA3 (vacant vector) or pcDMA3-HDART (HDART expression vector). 24 hours after the transfection, the medium was changed with an ATRA-containing (2 μM) or ATRA-free fresh one. […] All experiments were repeated four times, and the number of cells assessed as positive for GFP was counted. It will be noted that in FIG. 12, the standard microphotographs of green fluorescence of GFP are shown in panels of FIGS. 12A, 12B, 12C and 12D, and the phase differential microphotographs are shown in panels of FIGS. 12E and 12F, respectively. In the figure, 12A indicates ATRA non-treated, vacant vector-introduced cells, 12B indicates ATRA treated, vacant vector-introduced cells, 12C indicates ATRA-non-treated, HDART expression vector-introduced cells, 12D indicates ATRA-treated, HDART expression vector-introduced cells, 12E indicates cells under the same conditions as in 12C above, and 12F indicates cells under the same conditions as in 12D above. In addition, the black arrow in the panel of FIG. 12F indicates undifferentiated GFP positive cells, and white arrow indicates differentiated cells.

[2] = tested on: retinoic acid receptor; assay: RAR reporter CAT analysis in HepG2 cells; assay type: cell-based
Description: Since it is shown in the above example that HDART is able to interact with Skip, the functional role of HDART on the transcription route ascribed to a nuclear receptor was analyzed. First, the effect of HDART on the transcription regulation by retinoic acid receptor was analyzed. For this purpose, the CAT analysis was made using a RAR (retinoid acid receptor) reporter plasmid incorporating a thymidine kinase minimum promoter (pTREpal-tata) and CAT gene therein downstream of a retinoid response element.
More particularly, pcDNA3-HDART, capable of steadily expressing HDART, and, at the same time, RAR reporter plasmid, were transfected into HepG2 cells by use of Effectene kit (QIAGEN™). It is to be noted that the pcDNA3-HDART expression vector was introduced in different amounts of 0, 0.5 and 1.0 μg, and the amount of DNA in the respective transfections was equalized at 1 μg by adding the appropriate amount of a vacant vector of pcDNA. After the transfection, growth was made in the presence (10^−8 M) or absence of ATRA and the CAT activity was measured. The results of the measurement (FIG. 6) are indicated in terms of values corrected on the basis of the CAT activity obtained after introduction of 1.0 μg of a vacant vector in the absence of ATRA. In addition, the average of the results of three experiments and a standard deviation in terms of an error bar are also shown.
(§1) Next, the influence of the overexpression of N4TPR on the transcription from RAR or a glucocorticoid responsive promoter was checked. It will be noted that this test was made in the same manner as in the reporter analysis set out in Example 4, but using GFP-N4TPR expression vector (0, 0.3 and 0.5 μg).

[3] = tested on: HDAC; assay: CAT reporter analysis with HDART in the presence of HDAC inhibitors; assay type: cell-based; conditions: pcDNA3-HDART 1 μg
Description: In this example, however, a given amount of pcDNA3-HDART expression vector (1 μg) (“HDART+” in FIGS. 10) and 100 nM of TSA or […] of sodium butyrate was added to along with a ligand (ATRA or dexamethasone).

[4] = biological target: T1, Skip (Homo sapiens, UniProt Q13573); assay: Yeast two-hybrid analysis (β-galactosidase) of HDART-Skip interaction; assay type: binding; parameters: expressed in transfected cells; host or cells: Saccharomyces cerevisiae Y190; conditions: Gal4DBD-HDART and deletion mutants with Gal4AD-Skip; β-galactosidase activity
T1 sequence (Q13573 1-536): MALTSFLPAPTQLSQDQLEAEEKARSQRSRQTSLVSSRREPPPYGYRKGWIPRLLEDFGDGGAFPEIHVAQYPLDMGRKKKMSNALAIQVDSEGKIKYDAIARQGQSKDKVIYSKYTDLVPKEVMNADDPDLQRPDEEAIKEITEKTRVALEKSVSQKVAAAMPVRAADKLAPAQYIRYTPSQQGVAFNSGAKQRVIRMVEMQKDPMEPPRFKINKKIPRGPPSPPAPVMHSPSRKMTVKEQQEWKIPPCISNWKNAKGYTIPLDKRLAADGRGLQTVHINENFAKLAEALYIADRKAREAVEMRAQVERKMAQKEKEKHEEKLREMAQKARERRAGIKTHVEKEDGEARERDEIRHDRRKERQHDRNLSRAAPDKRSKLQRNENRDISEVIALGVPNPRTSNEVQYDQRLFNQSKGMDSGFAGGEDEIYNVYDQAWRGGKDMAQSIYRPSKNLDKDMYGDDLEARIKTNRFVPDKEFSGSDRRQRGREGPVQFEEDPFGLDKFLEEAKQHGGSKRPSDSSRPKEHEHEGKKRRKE
From the text: In order to isolate a protein that binds to this HDART, a yeast two-hybrid system was used. More particularly, a yeast MATCHMAKER two-hybrid analysis kit (Clontech) was used for the isolation. The ORF full length of HDART was inserted so that it and the Gal4 DNA binding domain reading frame were aligned in the same frame with each other within pAS-1 vector (Clontech). This bait plasmid was transformed into Saccharomyces cerevisiae Y190 along with pACT2 prey plasmid whose HeLa cDNA (Clontech) had been sub-cloned. The screening for clones into which both plasmids were introduced was carried out according to the kit protocol. […]
For mapping of regions on the Skip taking part in the interaction with HDART, a series of deletion mutations where various regions on Skip (N-terminus region (codon 1-220), nuclear hormone binding region (NHR binding, codon 221-388), and tran-activation region (TA, codon 438-536) were deleted, and the interaction between HDART and mutated Skip was analyzed according to the yeast two-hybrid analysis using Gal4DBD-HDART as set forth in Example 2. The results of the analysis are shown in FIG. 5A. The sign “+” indicated at the right of FIG. 5A indicates the observation of the interaction by the filter lift analysis of β-galactosidase activity, and the number of “+” indicates the relative intensity of the interaction. […]

[5] = tested on: glucocorticoid receptor (GR); assay: GR reporter CAT analysis in GR positive Hela cells; assay type: cell-based
Description: Furthermore, the action of HDART on the transcription regulation by glucocorticoid receptor (GR) was analyzed by use of GR reporter plasmid in GR positive Hela cells. The transcription activity of a glucocorticoid response promoter was carried out in the same manner as in the experiment for the retinoic acid receptor except for the use of Hela cells and 10^−8 M of dexamethasone. The results of the measurement are shown in the same manner as shown above.
as §1

[6] = biological target: T1, Skip; assay: Immunoprecipitation: N4TPR inhibition of endogenous HDART-Skip interaction in 293 cells; assay type: binding; parameters: expressed in transfected cells; host or cells: 293 cells; conditions: GFP-N4TPR expressed versus GFP alone
From the text: RAR and TR inhibit the genetic activity in the absence of a ligand in vivo (Baniahmad, A., Kohne, A. C., and Renkawitz, R. (1992) Embo J 11(3), 1015-23) and in vitro (Fondell, J. D., Roy, A. L., and Roeder, R. G. (1993) Genes Dev 7(7B), 1400-10). From this, this is called active repression. Skip interacts with NHR independently of ligand (MacDonald, P. N., Baudino, T. A., Toumaru, H., Dowd, D. R., and Zhang, C. (2001) Steroids 66 (3-5), 171-6). […] In order to clarify these possibilities, a dominant negative line of HDART is overexpressed to check the influence on the transcription ascribed to RAR. As shown in Example 2, the four TRPs (N4TPR) at the N terminus of HDART are in the Skip binding region, so that it is hypothesized that the expression of this region inhibits the interaction between the endogenous HDART and Skip, it is inhibiting the natural function of HDART and functioning as a dominant negative. In this sense, the N4TPR was used as a candidate for dominant negative in this example.
Flag-Skip and N4TPR tagged with GFP or GFP were transfected into 293 cells. […] The expression of Flag-Skip was detected using an anti-Flag antibody, the expression of GFP and GFP-N4TPR detected using an anti-GFP antibody, and the expression of the internal HDART detected using an anti-HDART antibody, respectively (FIG. 11A).

[7] = absence of a ligand, GFP-N4TPR expression vector 0.5 μg (highest expression level)
[8] = absence of ligand, GFP-N4TPR expression vector 0.3 μg

For `CC1=C(/C=C/C(C)=C/C=C/C(C)=C/C(=O)O)C(C)(C)CCC1` [ATRA, all-trans retinoic acid, reference compound], which “number of GFP positive cells (cytotoxic effect)” value ([1]; cells treated with the vacant vector and ATRA 2 μM) is on record?
The value was “less than 30%”.

And the “morphological differentiation into muscle tissue (myotubular cytomegalic cells)” value ([1]; vacant vector-introduced cells, ATRA 2 μM, 48 hours)?
Its value is “differentiated into muscle tissue”.

What about the CAT activity ([2]; HepG2 cells receiving vacant vector (pcDNA), presence of ATRA 10^−8 M versus absence) of the same molecule?
The CAT activity was “increased five-fold”.

With `CCCC(=O)[O-].[Na+]` [sodium butyrate] as the molecule, how does the “expression repression by HDART” value ([3]; 1 mA of sodium butyrate added with ligand (ATRA or dexamethasone)) read?
Its value is “The same results were also observed”.

How did the “expression repression by HDART” value ([3]; 100 nM TSA added with ligand (ATRA or dexamethasone)) turn out when `CC(/C=C/C(=O)NO)=C\[C@@H](C)C(=O)c1ccc(N(C)C)cc1` [triconstatin A, tricostatin A] was run?
The value was “fully neutralized”.

B1: N4TPR: dominant negative peptide of HDART: four TPRs at the N terminus, amino acids 1 to 179 of SEQ ID NO: 2 (protein, listed as Homo sapiens)
chain: MVVMARLSRPERPDLVFEEEDLPYEEEIMRNQFSVKCWLRYIEFKQGAPKPRLNQLYERALKLLPCSYKLWYRYLKARRAQVKHRCVTDPAYEDVNNCHERAFVFMHKMPRLWLDYCQFLMDQGRVTHTRRTFDRALRALPITQHSRIWPLYLRFLRSHPLPETAVRGYRRFLKLSPES
How did the “interaction with Skip” value [4] turn out when B1 was run?
Its value is “ensures the interaction with Skip to a full extent”.

What about the “transcription activity from the glucocorticoid responsive promoter” value [5, 7] of the same molecule?
The value was “about 20 times”.

What about the “transcription activity from the glucocorticoid responsive promoter” value [5, 8] of the same molecule?
Its value is “increased up to the amount (gray column) of transcription activity induced by the presence of ligand”.

What about the “amount of HDART co-precipitated with Skip” value [6] of the same molecule?
Its value is “more reduced amount”.

What about the “transcription activation capability for the retinoic acid receptor compared with ATRA” value ([2]; N4TPR versus ATRA) of the same molecule?
The value was “higher transcription activation capability than ATRA”.

What about the “transcription activity from the RAR responsive promoter” value [2, 7] of the same molecule?
Its value is “about 20 times”.

What about the “transcription activity from the RAR responsive promoter” value [2, 8] of the same molecule?
The value was “increased up to the amount (gray column) of transcription activity induced by the presence of ligand”.

From patent publication US8889408B2, “Factor taking part in transcription control” (Sony Corporation, priority 2002, dated 2014)
